Measurements reported in patent US8716556.

Target: MYB96 (Arabidopsis thaliana) (UniProt Q24JK1)
Experiment: cell_activity
Details: GUS reporter activation in Arabidopsis protoplasts

Sequence of UniProt Q24JK1 (Q24JK1 whole entry): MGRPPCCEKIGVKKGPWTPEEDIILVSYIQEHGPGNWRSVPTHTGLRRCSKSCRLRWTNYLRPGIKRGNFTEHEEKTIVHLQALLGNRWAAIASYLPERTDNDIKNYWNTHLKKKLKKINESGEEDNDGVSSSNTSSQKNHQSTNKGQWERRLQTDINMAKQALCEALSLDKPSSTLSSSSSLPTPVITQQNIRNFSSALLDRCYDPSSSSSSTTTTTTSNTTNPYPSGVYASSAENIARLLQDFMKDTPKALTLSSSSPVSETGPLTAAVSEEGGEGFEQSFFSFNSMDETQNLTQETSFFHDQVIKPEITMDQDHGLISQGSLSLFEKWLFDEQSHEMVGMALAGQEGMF

For KCS1-BS in pKCS-P reporter, the activity was > 6 fold.
